Biological target: mixture of three Der p 2 specific recombinant human IgE clones H10, H12, P4E (human) (UniProt P01854)
Assay: RBL-SX38 IgE displacement, FACS

mixture of three Der p 2 specific recombinant human IgE clones H10, H12, P4E (human), sequence (P01854 other isoform, or with tags, fused parts or gaps): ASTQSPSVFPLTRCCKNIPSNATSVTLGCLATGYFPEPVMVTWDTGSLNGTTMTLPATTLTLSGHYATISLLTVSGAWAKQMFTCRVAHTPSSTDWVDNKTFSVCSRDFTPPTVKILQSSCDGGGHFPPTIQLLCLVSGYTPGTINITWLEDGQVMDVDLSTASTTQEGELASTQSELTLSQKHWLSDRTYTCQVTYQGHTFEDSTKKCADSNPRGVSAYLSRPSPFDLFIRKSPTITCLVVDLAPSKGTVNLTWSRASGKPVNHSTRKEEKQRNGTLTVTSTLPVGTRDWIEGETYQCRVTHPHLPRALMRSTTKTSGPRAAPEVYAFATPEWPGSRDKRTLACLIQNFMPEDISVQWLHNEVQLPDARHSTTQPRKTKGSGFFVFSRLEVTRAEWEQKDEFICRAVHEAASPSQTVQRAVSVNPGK

| Binder | Max effect/effect 1 µM [%] | EC50 [nM] |
| --- | --- | --- |
| CIgG4F3A1(G4S)2 (Fc fusion) chain 1: GPPCPPCPAPEFLGGPSVFLFPPKPKDTLMISRTPEVTCVVVDVSQEDPEVQFNWYVDGVEVHNAKTKPREEQFNSTYRVVSVLTVLHQDWLNGKEYKCKVSNKGLPSSIEKTISKAKGQPREPQVYTLPPCQEEMTKNQVSLWCLVKGFYPSDIAVEWESNGQPENNYKTTPPVLDSDGSFFLYSRLTVDKSRWQEGNVFSCSVMHEALHNHYTQKSLSLSLGKGGGGSGGGGSDVQLQESGGGLVQAGGSLKLSCAASRGSLSRWDVAWFRQAPGKERSFVTRISWSGTTSYYADAVKGRFAISRDNAKNTVYLQMNSLKPEDTAVYYCAVALYGNRGYYDVNAHSYWGQGTQVTVS chain 2: GPPCPPCPAPEFLGGPSVFLFPPKPKDTLMISRTPEVTCVVVDVSQEDPEVQFNWYVDGVEVHNAKTKPREEQFNSTYRVVSVLTVLHQDWLNGKEYKCKVSNKGLPSSIEKTISKAKGQPREPQVCTLPPSQEEMTKNQVSLSCAVKGFYPSDIAVEWESNGQPENNYKTTPPVLDSDGSFFLVSRLTVDKSRWQEGNVFSCSVMHEALHNHYTQKSLSLSLGKGGGGSGGGGSEVQLLESGGGLVQPGGSLRLSCAASGFTFGNYDMAWVRQAPGKRPEWVSSIDTGGDITHYADSVKGRFTISRDNAKNTLYLQMNSLRPEDTAVYWCATDEEYALGPNEFDYYGQGTLVTVSS | 0 |  |
| CIgG4F3A1(G4S)3 (Fc fusion) chain 1: GPPCPPCPAPEFLGGPSVFLFPPKPKDTLMISRTPEVTCVVVDVSQEDPEVQFNWYVDGVEVHNAKTKPREEQFNSTYRVVSVLTVLHQDWLNGKEYKCKVSNKGLPSSIEKTISKAKGQPREPQVYTLPPCQEEMTKNQVSLWCLVKGFYPSDIAVEWESNGQPENNYKTTPPVLDSDGSFFLYSRLTVDKSRWQEGNVFSCSVMHEALHNHYTQKSLSLSLGKGGGGSGGGGSGGGGSDVQLQESGGGLVQAGGSLKLSCAASRGSLSRWDVAWFRQAPGKERSFVTRISWSGTTSYYADAVKGRFAISRDNAKNTVYLQMNSLKPEDTAVYYCAVALYGNRGYYDVNAHSYWGQGTQVTVS chain 2: GPPCPPCPAPEFLGGPSVFLFPPKPKDTLMISRTPEVTCVVVDVSQEDPEVQFNWYVDGVEVHNAKTKPREEQFNSTYRVVSVLTVLHQDWLNGKEYKCKVSNKGLPSSIEKTISKAKGQPREPQVCTLPPSQEEMTKNQVSLSCAVKGFYPSDIAVEWESNGQPENNYKTTPPVLDSDGSFFLVSRLTVDKSRWQEGNVFSCSVMHEALHNHYTQKSLSLSLGKGGGGSGGGGSGGGGSEVQLLESGGGLVQPGGSLRLSCAASGFTFGNYDMAWVRQAPGKRPEWVSSIDTGGDITHYADSVKGRFTISRDNAKNTLYLQMNSLRPEDTAVYWCATDEEYALGPNEFDYYGQGTLVTVSS | 2 |  |
| CIgG4F3A1(RS) (Fc fusion) chain 1: GPPCPPCPAPEFLGGPSVFLFPPKPKDTLMISRTPEVTCVVVDVSQEDPEVQFNWYVDGVEVHNAKTKPREEQFNSTYRVVSVLTVLHQDWLNGKEYKCKVSNKGLPSSIEKTISKAKGQPREPQVYTLPPCQEEMTKNQVSLWCLVKGFYPSDIAVEWESNGQPENNYKTTPPVLDSDGSFFLYSRLTVDKSRWQEGNVFSCSVMHEALHNHYTQKSLSLSLGKRSDVQLQESGGGLVQAGGSLKLSCAASRGSLSRWDVAWFRQAPGKERSFVTRISWSGTTSYYADAVKGRFAISRDNAKNTVYLQMNSLKPEDTAVYYCAVALYGNRGYYDVNAHSYWGQGTQVTVS chain 2: GPPCPPCPAPEFLGGPSVFLFPPKPKDTLMISRTPEVTCVVVDVSQEDPEVQFNWYVDGVEVHNAKTKPREEQFNSTYRVVSVLTVLHQDWLNGKEYKCKVSNKGLPSSIEKTISKAKGQPREPQVCTLPPSQEEMTKNQVSLSCAVKGFYPSDIAVEWESNGQPENNYKTTPPVLDSDGSFFLVSRLTVDKSRWQEGNVFSCSVMHEALHNHYTQKSLSLSLGKRSEVQLLESGGGLVQPGGSLRLSCAASGFTFGNYDMAWVRQAPGKRPEWVSSIDTGGDITHYADSVKGRFTISRDNAKNTLYLQMNSLRPEDTAVYWCATDEEYALGPNEFDYYGQGTLVTVSS | 9 |  |
| CIgG4F3A1(G4S)1 (Fc fusion) chain 1: GPPCPPCPAPEFLGGPSVFLFPPKPKDTLMISRTPEVTCVVVDVSQEDPEVQFNWYVDGVEVHNAKTKPREEQFNSTYRVVSVLTVLHQDWLNGKEYKCKVSNKGLPSSIEKTISKAKGQPREPQVYTLPPCQEEMTKNQVSLWCLVKGFYPSDIAVEWESNGQPENNYKTTPPVLDSDGSFFLYSRLTVDKSRWQEGNVFSCSVMHEALHNHYTQKSLSLSLGKGGGGSDVQLQESGGGLVQAGGSLKLSCAASRGSLSRWDVAWFRQAPGKERSFVTRISWSGTTSYYADAVKGRFAISRDNAKNTVYLQMNSLKPEDTAVYYCAVALYGNRGYYDVNAHSYWGQGTQVTVS chain 2: GPPCPPCPAPEFLGGPSVFLFPPKPKDTLMISRTPEVTCVVVDVSQEDPEVQFNWYVDGVEVHNAKTKPREEQFNSTYRVVSVLTVLHQDWLNGKEYKCKVSNKGLPSSIEKTISKAKGQPREPQVCTLPPSQEEMTKNQVSLSCAVKGFYPSDIAVEWESNGQPENNYKTTPPVLDSDGSFFLVSRLTVDKSRWQEGNVFSCSVMHEALHNHYTQKSLSLSLGKGGGGSEVQLLESGGGLVQPGGSLRLSCAASGFTFGNYDMAWVRQAPGKRPEWVSSIDTGGDITHYADSVKGRFTISRDNAKNTLYLQMNSLRPEDTAVYWCATDEEYALGPNEFDYYGQGTLVTVSS | 35 |  |

Second part, the binder after the results:

| Max effect/effect 1 µM [%] | EC50 [nM] | Binder |
| --- | --- | --- |
| 94 | 0.9 | NIgG4F3A1(G4S)3 (Fc fusion) chain 1: DVQLQESGGGLVQAGGSLKLSCAASRGSLSRWDVAWFRQAPGKERSFVTRISWSGTTSYYADAVKGRFAISRDNAKNTVYLQMNSLKPEDTAVYYCAVALYGNRGYYDVNAHSYWGQGTQVTVSGGGGSGGGGSGGGGSGPPCPPCPAPEFLGGPSVFLFPPKPKDTLMISRTPEVTCVVVDVSQEDPEVQFNWYVDGVEVHNAKTKPREEQFNSTYRVVSVLTVLHQDWLNGKEYKCKVSNKGLPSSIEKTISKAKGQPREPQVYTLPPCQEEMTKNQVSLWCLVKGFYPSDIAVEWESNGQPENNYKTTPPVLDSDGSFFLYSRLTVDKSRWQEGNVFSCSVMHEALHNHYTQKSLSLSLGK chain 2: EVQLLESGGGLVQPGGSLRLSCAASGFTFGNYDMAWVRQAPGKRPEWVSSIDTGGDITHYADSVKGRFTISRDNAKNTLYLQMNSLRPEDTAVYWCATDEEYALGPNEFDYYGQGTLVTVSSGGGGSGGGGSGGGGSGPPCPPCPAPEFLGGPSVFLFPPKPKDTLMISRTPEVTCVVVDVSQEDPEVQFNWYVDGVEVHNAKTKPREEQFNSTYRVVSVLTVLHQDWLNGKEYKCKVSNKGLPSSIEKTISKAKGQPREPQVCTLPPSQEEMTKNQVSLSCAVKGFYPSDIAVEWESNGQPENNYKTTPPVLDSDGSFFLVSRLTVDKSRWQEGNVFSCSVMHEALHNHYTQKSLSLSLGK |
| 74 | 331 | NIgG4F4A1(RS) (Fc fusion) chain 1: DVQLQESGGGLVQAGGSLRLSCAVSGLSFSSMGWFRQPPGKEREFVAAISLYSGSTYYADSVKGRFTISSDNAKSTVYLQMNSLKPEDAAVYFCAADRQRTWSTFYASRQATYNYWGQGTQVTVTSRSGPPCPPCPAPEFLGGPSVFLFPPKPKDTLMISRTPEVTCVVVDVSQEDPEVQFNWYVDGVEVHNAKTKPREEQFNSTYRVVSVLTVLHQDWLNGKEYKCKVSNKGLPSSIEKTISKAKGQPREPQVYTLPPCQEEMTKNQVSLWCLVKGFYPSDIAVEWESNGQPENNYKTTPPVLDSDGSFFLYSRLTVDKSRWQEGNVFSCSVMHEALHNHYTQKSLSLSLGK chain 2: EVQLLESGGGLVQPGGSLRLSCAASGFTFGNYDMAWVRQAPGKRPEWVSSIDTGGDITHYADSVKGRFTISRDNAKNTLYLQMNSLRPEDTAVYWCATDEEYALGPNEFDYYGQGTLVTVSSRSGPPCPPCPAPEFLGGPSVFLFPPKPKDTLMISRTPEVTCVVVDVSQEDPEVQFNWYVDGVEVHNAKTKPREEQFNSTYRVVSVLTVLHQDWLNGKEYKCKVSNKGLPSSIEKTISKAKGQPREPQVCTLPPSQEEMTKNQVSLSCAVKGFYPSDIAVEWESNGQPENNYKTTPPVLDSDGSFFLVSRLTVDKSRWQEGNVFSCSVMHEALHNHYTQKSLSLSLGK |
| 100 | 21.6 | NIgG4F4A1(G4S)1 (Fc fusion) chain 1: DVQLQESGGGLVQAGGSLRLSCAVSGLSFSSMGWFRQPPGKEREFVAAISLYSGSTYYADSVKGRFTISSDNAKSTVYLQMNSLKPEDAAVYFCAADRQRTWSTFYASRQATYNYWGQGTQVTVTSGGGGSGPPCPPCPAPEFLGGPSVFLFPPKPKDTLMISRTPEVTCVVVDVSQEDPEVQFNWYVDGVEVHNAKTKPREEQFNSTYRVVSVLTVLHQDWLNGKEYKCKVSNKGLPSSIEKTISKAKGQPREPQVYTLPPCQEEMTKNQVSLWCLVKGFYPSDIAVEWESNGQPENNYKTTPPVLDSDGSFFLYSRLTVDKSRWQEGNVFSCSVMHEALHNHYTQKSLSLSLGK chain 2: EVQLLESGGGLVQPGGSLRLSCAASGFTFGNYDMAWVRQAPGKRPEWVSSIDTGGDITHYADSVKGRFTISRDNAKNTLYLQMNSLRPEDTAVYWCATDEEYALGPNEFDYYGQGTLVTVSSGGGGSGPPCPPCPAPEFLGGPSVFLFPPKPKDTLMISRTPEVTCVVVDVSQEDPEVQFNWYVDGVEVHNAKTKPREEQFNSTYRVVSVLTVLHQDWLNGKEYKCKVSNKGLPSSIEKTISKAKGQPREPQVCTLPPSQEEMTKNQVSLSCAVKGFYPSDIAVEWESNGQPENNYKTTPPVLDSDGSFFLVSRLTVDKSRWQEGNVFSCSVMHEALHNHYTQKSLSLSLGK |
| 95 | 2 | NIgG4F3A1(G4S)2 (Fc fusion) chain 1: DVQLQESGGGLVQAGGSLKLSCAASRGSLSRWDVAWFRQAPGKERSFVTRISWSGTTSYYADAVKGRFAISRDNAKNTVYLQMNSLKPEDTAVYYCAVALYGNRGYYDVNAHSYWGQGTQVTVSGGGGSGGGGSGPPCPPCPAPEFLGGPSVFLFPPKPKDTLMISRTPEVTCVVVDVSQEDPEVQFNWYVDGVEVHNAKTKPREEQFNSTYRVVSVLTVLHQDWLNGKEYKCKVSNKGLPSSIEKTISKAKGQPREPQVYTLPPCQEEMTKNQVSLWCLVKGFYPSDIAVEWESNGQPENNYKTTPPVLDSDGSFFLYSRLTVDKSRWQEGNVFSCSVMHEALHNHYTQKSLSLSLGK chain 2: EVQLLESGGGLVQPGGSLRLSCAASGFTFGNYDMAWVRQAPGKRPEWVSSIDTGGDITHYADSVKGRFTISRDNAKNTLYLQMNSLRPEDTAVYWCATDEEYALGPNEFDYYGQGTLVTVSSGGGGSGGGGSGPPCPPCPAPEFLGGPSVFLFPPKPKDTLMISRTPEVTCVVVDVSQEDPEVQFNWYVDGVEVHNAKTKPREEQFNSTYRVVSVLTVLHQDWLNGKEYKCKVSNKGLPSSIEKTISKAKGQPREPQVCTLPPSQEEMTKNQVSLSCAVKGFYPSDIAVEWESNGQPENNYKTTPPVLDSDGSFFLVSRLTVDKSRWQEGNVFSCSVMHEALHNHYTQKSLSLSLGK |
